In US20240016892A1:
Blank lines part the entries; values can stand above or below the substance they belong to.

What was measured:
[1] = target: recombinant human HVEM (human) (UniProt Q92956); assay: BLI (Octet-Red96), tagged rhHVEM immobilised on biosensor
[2] = target: recombinant human LTβR (human) (UniProt P36941); assay: BLI (Octet-Red96), tagged rhLTβR immobilised on biosensor
human 4-1BB-His (human) [3] = target: human 4-1BB-His (human) (UniProt Q07011); assay: MSD 'Human 41BB-Binding Assay': coat h41BB-His (R&D), detect anti-41BBL (R&D), anti-Goat Sulfo; positive control
Sequence of human 4-1BB-His (human) (Q07011 24-186 limits assumed): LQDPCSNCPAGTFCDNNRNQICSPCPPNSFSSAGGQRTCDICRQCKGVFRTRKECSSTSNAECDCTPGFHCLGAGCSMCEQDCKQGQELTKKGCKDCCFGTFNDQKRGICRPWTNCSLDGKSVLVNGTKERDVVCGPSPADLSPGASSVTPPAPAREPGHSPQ

mouse CD47-Fc (mouse) = mouse CD47-Fc (mouse) (UniProt Q61735); assay: MSD dual-binding sandwich: coat mCD47-Fc (Acro); detect m41BB-His (Acro); anti-His Biotin + Streptavidin Sulfo; labelled Negative Control
Sequence of mouse CD47-Fc (mouse) (Q61735 19-140 limits assumed): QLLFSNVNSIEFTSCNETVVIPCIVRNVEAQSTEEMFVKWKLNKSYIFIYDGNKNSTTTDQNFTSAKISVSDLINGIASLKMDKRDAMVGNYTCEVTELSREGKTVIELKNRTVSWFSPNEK

[4] = target: recombinant human PVR (human) (UniProt P15151); assay: BLI (Octet-Red96), tagged rhPVR immobilised on biosensor
[5] = target: recombinant human HVEM-Fc (human) (UniProt Q92956); assay: MSD sandwich: capture HVEM-Fc; detection PVR-Biotin
Sequence of recombinant human HVEM-Fc (human) (Q92956 39-202 limits assumed): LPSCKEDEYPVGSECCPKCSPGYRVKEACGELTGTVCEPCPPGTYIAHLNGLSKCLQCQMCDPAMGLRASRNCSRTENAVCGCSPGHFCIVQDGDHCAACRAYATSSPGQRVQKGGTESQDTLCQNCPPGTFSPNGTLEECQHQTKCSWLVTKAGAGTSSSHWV

[6] = target: recombinant human LTβR-Fc (human) (UniProt P36941); assay: MSD sandwich: capture LTβR-Fc; detection PVR-Biotin
Sequence of recombinant human LTβR-Fc (human) (P36941 31-227 limits assumed): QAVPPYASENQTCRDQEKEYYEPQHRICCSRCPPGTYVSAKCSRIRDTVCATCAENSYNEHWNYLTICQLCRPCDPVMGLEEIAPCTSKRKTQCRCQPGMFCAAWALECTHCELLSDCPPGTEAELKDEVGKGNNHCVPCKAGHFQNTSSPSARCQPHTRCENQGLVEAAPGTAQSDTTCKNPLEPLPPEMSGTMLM

human 4-1BB-His (human) [7] = target: human 4-1BB-His (human) (UniProt Q07011); assay: MSD 'Human 41BB-Binding Assay': coat h41BB-His (R&D), detect anti-41BBL (R&D), anti-Goat Sulfo; negative control, fit value for a curve that stays near the baseline
mouse CD47-His (mouse) = mouse CD47-His (mouse) (UniProt Q61735); assay: MSD: coat mCD47-His (Acro); detection anti-mouse Sulfo (MSD); labelled Positive Control
Sequence of mouse CD47-His (mouse) (Q61735 19-140 limits assumed): as the sequence (Q61735 19-140 limits assumed) above

mouse 4-1BB-His (mouse) = mouse 4-1BB-His (mouse) (UniProt P20334); assay: MSD: coat m41BB-His (Acro); detection anti-mouse Sulfo (MSD); labelled Negative Control, flat curve
Sequence of mouse 4-1BB-His (mouse) (P20334 24-187 limits assumed): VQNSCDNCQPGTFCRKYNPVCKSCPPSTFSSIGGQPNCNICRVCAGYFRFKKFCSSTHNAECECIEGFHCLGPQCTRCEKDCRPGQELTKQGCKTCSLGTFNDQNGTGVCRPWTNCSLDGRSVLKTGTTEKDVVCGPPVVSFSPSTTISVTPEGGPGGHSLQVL

Sequence of recombinant human HVEM (human) (Q92956 39-202 limits assumed): as the sequence (Q92956 39-202 limits assumed) above
Sequence of recombinant human LTβR (human) (P36941 31-227 limits assumed): as the sequence (P36941 31-227 limits assumed) above

Kd [1]: 2.12 nM | koff [1]: 0.000876 s⁻¹ | kon [1]: 410000 M⁻¹ s⁻¹ | Kd [2]: 28.4 nM | koff [2]: 0.00754 s⁻¹ | kon [2]: 266000 M⁻¹ s⁻¹
Substance: Fc-LIGHT single-sided fusion protein control (Fc fusion)

EC50 (human 4-1BB-His (human) [3]): 0.63 nM
Substance: PD-1-Fc-4-1BBL chimeric protein (as used in Example 14) (Fc fusion)

EC50 (mouse CD47-Fc (mouse)): 45000 nM
Substance: PD-1-Fc-4-1BBL chimeric protein (as used in Example 15) (Fc fusion)

Kd [4]: 5.24 nM | koff [4]: 0.00154 s⁻¹ | kon [4]: 296000 M⁻¹ s⁻¹
Substance: TIGIT-Fc single-sided fusion protein control (Fc fusion)

EC50 (read off the curve) [5]: 5 nM | EC50 (read off the curve) [6]: 3 nM
Substance: TIGIT-Fc(IgG1)-LIGHT chimeric protein (Fc fusion)

EC50 (human 4-1BB-His (human) [7]): 143 nM
Substance: hSIRPα-Fc-CD40L chimeric protein (Fc fusion)

EC50 (mouse CD47-His (mouse)): 0.369 nM | EC50 (mouse 4-1BB-His (mouse)): 5350 nM
Substance: mSIRPα-Fc-CD40L chimeric protein (Fc fusion)
